Earlier results as cited in paper PMC10825016.
Read-outs that look alike come from different tables or passages of the source.

Legend:
GrpE (Escherichia coli) [1] = biological target: GrpE (Escherichia coli) (UniProt P09372)
GrpE (Escherichia coli) [2] = biological target: GrpE (Escherichia coli) (UniProt P09372); remark: listed apart in the source

DnaK, sequence (P0A6Y8 2-638): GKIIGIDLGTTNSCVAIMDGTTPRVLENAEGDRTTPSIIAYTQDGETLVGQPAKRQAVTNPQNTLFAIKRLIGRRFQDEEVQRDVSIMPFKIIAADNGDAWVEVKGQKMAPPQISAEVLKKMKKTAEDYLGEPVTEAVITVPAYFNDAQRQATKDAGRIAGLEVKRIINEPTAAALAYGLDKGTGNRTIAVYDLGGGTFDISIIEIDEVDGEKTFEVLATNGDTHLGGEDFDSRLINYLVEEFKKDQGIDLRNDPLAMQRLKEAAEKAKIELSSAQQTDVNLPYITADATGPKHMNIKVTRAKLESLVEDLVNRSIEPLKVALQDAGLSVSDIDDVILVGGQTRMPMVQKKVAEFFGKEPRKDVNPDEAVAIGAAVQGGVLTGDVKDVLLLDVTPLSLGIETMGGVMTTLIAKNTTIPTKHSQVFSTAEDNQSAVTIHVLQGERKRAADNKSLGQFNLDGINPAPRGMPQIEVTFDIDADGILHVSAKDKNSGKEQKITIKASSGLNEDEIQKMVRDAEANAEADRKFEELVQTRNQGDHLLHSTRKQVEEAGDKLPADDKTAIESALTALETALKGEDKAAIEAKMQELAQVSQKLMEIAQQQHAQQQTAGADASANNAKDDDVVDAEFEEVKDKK
GrpE (Escherichia coli), sequence (P09372 whole entry): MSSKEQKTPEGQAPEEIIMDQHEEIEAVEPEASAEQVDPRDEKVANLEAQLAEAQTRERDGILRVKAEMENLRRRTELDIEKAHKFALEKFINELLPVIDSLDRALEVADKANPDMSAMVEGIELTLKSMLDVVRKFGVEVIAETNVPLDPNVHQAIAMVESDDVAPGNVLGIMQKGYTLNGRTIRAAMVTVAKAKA

Kd (GrpE (Escherichia coli) [1]): 11 nM | Kd (GrpE (Escherichia coli) [2]): 220 nM
Substance: DnaK (from UniProt P0A6Y8)
